# In IntAct's records for PubMed 23918659:
# B1: Vacuolar protein sorting-associated protein 33B (Homo sapiens), Q9H267 (parent)
# chain: MAFPHRPDAPELPDFSMLKRLARDQLIYLLEQLPGKKDLFIEADLMSPLDRIANVSILKQHEVDKLYKVENKPALSSNEQLCFLVRPRIKNMRYIASLVNADKLAGRTRKYKVIFSPQKFYACEMVLEEEGIYGDVSCDEWAFSLLPLDVDLLSMELPEFFRDYFLEGDQRWINTVAQALHLLSTLYGPFPNCYGIGRCAKMAYELWRNLEEEEDGETKGRRPEIGHIFLLDRDVDFVTALCSQVVYEGLVDDTFRIKCGSVDFGPEVTSSDKSLKVLLNAEDKVFNEIRNEHFSNVFGFLSQKARNLQAQYDRRRGMDIKQMKNFVSQELKGLKQEHRLLSLHIGACESIMKKKTKQDFQELIKTEHALLEGFNIRESTSYIEEHIDRQVSPIESLRLMCLLSITENGLIPKDYRSLKTQYLQSYGPEHLLTFSNLRRAGLLTEQAPGDTLTAVESKVSKLVTDKAAGKITDAFSSLAKRSNFRAISKKLNLIPRVDGEYDLKVPRDMAYVFGGAYVPLSCRIIEQVLERRSWQGLDEVVRLLNCSDFAFTDMTKEDKASSESLRLILVVFLGGCTFSEISALRFLGREKGYRFIFLTTAVTNSARLMEAMSEVKA
# partner: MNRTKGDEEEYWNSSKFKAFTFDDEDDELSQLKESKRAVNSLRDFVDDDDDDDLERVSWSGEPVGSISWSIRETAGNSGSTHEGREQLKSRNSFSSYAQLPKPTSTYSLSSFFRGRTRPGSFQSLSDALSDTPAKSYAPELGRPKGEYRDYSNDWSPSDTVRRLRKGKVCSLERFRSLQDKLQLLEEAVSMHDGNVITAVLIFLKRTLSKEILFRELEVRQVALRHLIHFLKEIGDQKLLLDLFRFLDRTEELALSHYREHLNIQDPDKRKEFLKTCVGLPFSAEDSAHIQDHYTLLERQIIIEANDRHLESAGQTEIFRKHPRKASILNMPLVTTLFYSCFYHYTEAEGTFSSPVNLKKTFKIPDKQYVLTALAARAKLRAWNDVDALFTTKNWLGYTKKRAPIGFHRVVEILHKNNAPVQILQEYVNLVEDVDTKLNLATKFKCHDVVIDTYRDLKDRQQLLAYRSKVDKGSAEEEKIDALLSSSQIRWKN
# Variants of: B1
# Conditions: with spe39_human VIPAS39, Q9H9C1
row,Variant,effect of a mutation on the interaction
1,L30P,decreasing interaction
2,G249V,decreasing interaction

# Variants of: B1
# Conditions: with spe39_human VIPAS39, Q9H9C1
# Remark: another data set of the same source
row,Variant,effect of a mutation on the interaction
1,L30P,disrupting interaction

# Variants of: B1
# Conditions: with spe39_human VIPAS39, Q9H9C1
# Remark: another data set of the same source
row,Variant,effect of a mutation on the interaction
1,V251A;D252A;D253A,disrupting interaction
2,V235A;D236A;F237A,disrupting interaction
3,D232A;R233A;D234A,disrupting interaction

# Variants of: B1
# Conditions: with spe39_human VIPAS39, Q9H9C1
# Remark: another data set of the same source
row,Variant,effect of a mutation on the interaction
1,D234H,decreasing interaction
2,D252E,decreasing interaction
3,S243F,decreasing interaction
